Laboratory results from patent US20240207461A1, “RADIOACTIVE ANTITUMOR AGENT” (NIHON MEDI-PHYSICS CO., LTD., priority 2021, published 2024).

Columns and labels:
[1] = test system: SW1990 tumor-bearing mice; test: SPECT-CT imaging of ^111In-labeled antibodies, VOI analysis and absorbed dose calculation; format: in vivo, Balb/c nude mice; conditions: for SPECT absorbed dose liver / SPECT absorbed dose tumor: half-life converted from ^111In to ^225Ac, sphere model; for SPECT absorbed dose liver: mean liver weight 1.15 g; for SPECT absorbed dose tumor: tumor volume assumed 150 mm^3; for maximum tolerated dose (threshold dose/absorbed dose): threshold dose of liver assumed to be 30 Gy
Procedure: To find an anti-MUC5AC antibody with high tumor accumulation ability and high maximum tolerated dose, various antibodies were labeled with ^111In, administered to tumor-bearing mice, and SPECT-CT imaging was performed. Cumulative amount of radioactivity and absorbed dose in tumor and liver were calculated and compared using the obtained images.
(§1) Human pancreatic cancer cell line SW1990 (0.7×10^7 cells) were subcutaneously administered to Balb/c nude mice (male) from the flank to the back thereof.
(§2) When the tumor size reached about 150-300 mm^3 14 days after transplantation of SW1990, various ^111In-labeled antibodies prepared in Reference Example 1-1 were administered from the tail vein of the mice. The tumor volume was calculated from the following calculation formula.
SPECT-CT imaging (small animal SPECT-CT apparatus: FX-3000, manufactured by Trifoil) was performed under the conditions in the following Table. The time points for imaging were 1, 6, 24, 48, 72, and 168 hr after administration. Image reconstruction was performed by the OSEM method for SPECT and the FBP method for CT. A VOI (volume of interest, three-dimensional ROI) analysis of the tumor and liver at each time point was performed. The count number per organ volume was corrected to % ID/g, the physical half-life was converted from ^111In to ^225Ac, the difference in physical half-life was corrected, and the time activity curve with the biological half-life added was obtained. The cumulative radioactivity amount was calculated from the integrated value of this time activity curve, and the absorbed dose was calculated in a sphere model (OLINDA/EXM ver2.0), and this was compared and examined for each antibody. However, for H01L03, a decrease in the time activity curve was not observed 168 hr after administration. Thus, the biological half-life was not considered and only the physical half-life was added.
When the threshold dose of liver was assumed to be 30 Gy, the maximum tolerated dose was estimated to be 3.90 MBq with a humanized antibody (H01L03) and 0.43 MBq with a chimeric antibody. The maximum tolerated dose (MBq) was calculated by threshold dose (Gy)/absorbed dose (Gy/MBq).
(§3) In the Table, the tumor volume was calculated assuming 150 mm^3 in the absorbed dose of SPECT. The absorbed dose of the liver was calculated based on the mean (1.15±0.14 g, n=19) of the weight of the mouse liver used in this Reference Example. The numerical value of the biodistribution was expressed by the mean±standard deviation of n=4 (however, n=3 for H02L04).

[2] = test system: SW1990 tumor-bearing mice; test: Biodistribution and excretion route 168 hr after administration of ^111In-labeled antibodies; format: in vivo, Balb/c nude mice; conditions: for biodistribution at 168 hr after administration, blood / biodistribution at 168 hr after administration, kidney / biodistribution at 168 hr after administration, liver / biodistribution at 168 hr after administration, spleen / biodistribution at 168 hr after administration, tumor: ^111In-labeled antibody, tail vein, mean ± SD n=4 (n=3 for H02L04)
Procedure: as §1, §2
A graph showing the results of confirming the biodistribution and the excretion route after the completion of SPECT-CT imaging 168 hr after administration are shown in FIG. 11.
as §3

[3] = ^111In-labeled antibodies, SPECT-CT up to 168 hr

B1: H01L03: anti-MUC5AC humanized antibody, heavy chain variable region H01 (SEQ ID NO: 1), light chain L03 (SEQ ID NO: 7), tested ^111In-labeled via DOTA-PEG-peptide (conjugate)
VH: EVQLLESGGGLVQPGGSLRLSCAASGFTFSNYGMSWVRQAPGKGLEWVSTISNSGRYTYFPDSVKGRFTISRDNSKNTLYLQMNSLRAEDTALYYCTRHLDYANYDAMDYWGQGTLVTVSS
VL: DIQMTQSPSSLSASVGDRVTITCRASKSVTTSDFSYMHWYQQKPGKSPKLLIYLASNLESGVPSRFSGSGSGTDFSLTISSLQPEDFATYYCQHSREFPWTFGGGTKVEIK
modifications: 111In-DOTA-PEG-peptide label; Humanaized antibody heavy chain variable region 1 (H01); Humanaized antibody light chain variable region 3 (L03)
decrease in the time activity curve ([1]; 168 hr after administration): not observed | accumulation in the tumor (comparison among antibodies) [1, 3]: highest | SPECT absorbed dose liver [1]: 7.7 Gy/MBq | SPECT absorbed dose tumor [1]: 35.0 Gy/MBq | maximum tolerated dose (threshold dose/absorbed dose) [1]: 3.90 MBq | blood retention ([2]; 168 hr after administration): high | excretion ([2]; 168 hr after administration): slowest | biodistribution at 168 hr after administration, blood [2]: 5.3 ± 1.3 % ID/g | biodistribution at 168 hr after administration, kidney [2]: 2.5 ± 0.4 % ID/g | biodistribution at 168 hr after administration, liver [2]: 3.6 ± 1.7 % ID/g | biodistribution at 168 hr after administration, spleen [2]: 5.4 ± 0.8 % ID/g | biodistribution at 168 hr after administration, tumor [2]: 24.2 ± 3.9 % ID/g

B2: chimeric antibody: anti-MUC5AC chimeric antibody disclosed in Patent Literature 1 (SEQ ID NOs: 23 and 24), tested ^111In-labeled (conjugate)
VH: EVKLVESGGVLVKSGGSLKLSCAVSGFTFSNYGMSWVRQTPEKRLEWVATISNSGRYTYFPDSVKGPFAISRDNAKNNLYLQMSSLRSADTALYYCTRHLDYANYDAMDYWGQGTSVTVSS
VL: DIVLTQSPASLAVSLGQRATISCRASKSVTTSDFSYMHWYQQKPGQPPKLLLYLASNLESGVPDRFSGSGSGYDFYLNIHPVEEEDAATYYCQHSREFPWTFGGGTKLEIK
modifications: 111In label; Kimeric antibody heavy chain variable region 7 (H07); Kimeric antibody light chain variable region 8 (L08)
accumulation in the liver (comparison among antibodies) [1, 3]: highest | accumulation in the tumor (comparison among antibodies) [1, 3]: lowest | SPECT absorbed dose liver [1]: 70.1 Gy/MBq | SPECT absorbed dose tumor [1]: 9.5 Gy/MBq | maximum tolerated dose (threshold dose/absorbed dose) [1]: 0.43 MBq | biodistribution at 168 hr after administration, blood [2]: 2.2 ± 0.6 % ID/g | biodistribution at 168 hr after administration, kidney [2]: 1.8 ± 0.3 % ID/g | biodistribution at 168 hr after administration, liver [2]: 7.9 ± 1.9 % ID/g | biodistribution at 168 hr after administration, spleen [2]: 5.0 ± 1.8 % ID/g | biodistribution at 168 hr after administration, tumor [2]: 11.6 ± 0.9 % ID/g
